From patent US20040132642A1, “Methods of inhibiting metastasis or growth of a tumor cell” (Government of the U.S.A., represented by the Secretary, …, priority 2002, published 2004)
Blank lines part the entries; values can stand above or below the substance they belong to.

Legend:
[1] = target: human CXC Chemokine Receptor-4 (CXCR4) (human) (UniProt P61073); assay: cell-based or functional assay
[2] = target: LMEC-derived CXCL12 (endogenous CXCL12 of human lung microvascular endothelial cells) (human) (UniProt P48061); assay: cell-based or functional assay
Chain of LMEC-derived CXCL12 (endogenous CXCL12 of human lung microvascular endothelial cells) (human) (P48061 22-93 limits assumed): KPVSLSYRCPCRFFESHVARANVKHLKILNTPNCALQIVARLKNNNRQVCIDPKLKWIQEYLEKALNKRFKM

Chain of human CXC Chemokine Receptor-4 (CXCR4) (human) (P61073 whole entry): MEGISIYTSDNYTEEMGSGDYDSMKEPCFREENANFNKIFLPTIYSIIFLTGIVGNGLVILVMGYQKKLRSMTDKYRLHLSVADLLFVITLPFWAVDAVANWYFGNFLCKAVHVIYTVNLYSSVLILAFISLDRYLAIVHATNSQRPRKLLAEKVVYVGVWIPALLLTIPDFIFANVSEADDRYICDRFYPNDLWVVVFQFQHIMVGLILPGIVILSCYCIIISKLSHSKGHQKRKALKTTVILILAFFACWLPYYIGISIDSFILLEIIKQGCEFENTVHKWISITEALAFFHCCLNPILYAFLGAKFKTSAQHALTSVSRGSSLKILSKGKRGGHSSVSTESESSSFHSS
Chain of recombinant CXCL12 (SDF-1) (ligand) (P48061 22-93): as the sequence (P48061 22-93 limits assumed) above
Chain of CCL19 (control chemokine) (ligand) (Q99731 22-98): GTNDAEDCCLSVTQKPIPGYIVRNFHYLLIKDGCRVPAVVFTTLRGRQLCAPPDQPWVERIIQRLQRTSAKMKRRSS

adhesion of CXCR4-B16 cells to chemokine-treated DMEC (adherent cells, parallel plate flow chamber) [1]: 6.8 | arrest of CXCR4-B16 cells on plates co-coated with VCAM-1/Ig and CCL19 at 1.5 dynes/cm^2 (Mean adherent cells/field) [1]: 17.2
Substance: CCL19 (control chemokine) (ligand)

arrest of CXCR4-B16 against pLNCX2-B16 cells on LMEC, no exogenous CXCL12 [1]: 3 times | arrest of CXCR4-B16 cells on TNFα-treated LMEC under flow, no exogenous CXCL12 (Mean adherent cells/field) [1]: 102
Substance: LMEC-derived CXCL12 (endogenous CXCL12 of human lung microvascular endothelial cells) (from UniProt P48061 22-93) (ligand)

arrest on TNF-α-stimulated LMEC of CXCR4-B16 cells pretreated with anti-CXCR4 mAb (10 µg/ml) (Mean adherent cells/field) [1]: 7.5
Substance: Mouse anti-human CXCR4 mAb (clone 44716.111, R&D Systems) (antibody)

arrest of CXCR4-B16 cells on LMEC pretreated with anti-CXCL12 mAb (100 µg/ml) (Mean adherent cells/field) [2]: 41.2
Substance: anti-human CXCL12 mAb (clone 77014.111, R&D Systems) (antibody)

adhesion of CXCR4-B16 cells to CXCL12-treated DMEC (adherent cells, parallel plate flow chamber) [1]: 85.2 | adhesion of CXCR4-B16 cells to CXCL12-treated LMEC (adherent cells) [1]: 321 | arrest of CXCR4-B16 cells on TNFα-treated LMEC under flow, with exogenous CXCL12 (Mean adherent cells/field) [1]: 170 | arrest of CXCR4-B16 cells on plates co-coated with VCAM-1/Ig and CXCL12 at 1.5 dynes/cm^2 (Mean adherent cells/field) [1]: 87.2 | growth of CXCR4-B16 cells in low serum, cell count at 24 h [1]: 19.3 | growth of CXCR4-B16 cells in low serum, cell count at 48 h [1]: 35.3
Substance: recombinant CXCL12 (SDF-1) (ligand)
